# Laboratory results published in patent publication US9364516B2, “Treatment of fibrosis-related disorders using fibronectin binding proteins and polypeptides” (priority 2010, dated 2016).
# B1: pUR4: 49-mer peptide derived from the bacterial F1 adhesin, His tagged, SEQ ID NO:1; class I fibronectin polymerization inhibitor (peptide)
# chain: MRGSHHHHHHGSKDQSPLAGESGETEYITEVYGNQQNPVDIDKKLPNETGFSGNMVETEDTKLN
# modifications: His tag; Bacterial adhesin derived peptide pUR4
# Tested on: type I collagen
# Test: ELISA binding of pUR4 to ECM proteins: collagen I
# Conditions: plates coated 10 μg/mL, FIG. 7
# Description: FIG. 7 is a graph depicting the binding of pUR4 to ECM Proteins. 96-well plates were coated with 10 μg/mL type I collagen (COL), denatured type I collagen (dCOL), fibronectin (FN), laminin (LN), vitronectin (VN), or fibrinogen (FG) at 4° C. overnight. pUR4 was added to the wells and serially diluted. Bound pUR4 was detected as described herein. Measurements were done at 405 nm on a Wallac 1420 multilabel counter. Data represents the average of duplicate determinations, and the error bars the range.
# 96-well tissue culture plates were coated with 10 μg/mL type I collagen, fibronectin, laminin, fibrinogen, or vitronectin overnight at 4° C. Denatured collagens were generated as described (George et al., “Fibronectins are Essential for Heart and Blood Vessel Morphogenesis but are Dispensable for Initial Specification of Precursor Cells,” Blood 90:3073-3081 (1997), which is hereby incorporated by reference in its entirety). Plates were blocked with 1% bovine serum albumin (BSA) in Tris buffered saline (TBS) for 1 hour, then washed with TBS. pUR4 was serially diluted into coated wells, then incubated at room temperature for 90 min. Wells were washed with TBS containing 0.1% Tween 20. […] After washing, peroxidase activity was quantified by using 2,2′-azino-bis-(3-ethylbenthiazoline-[…]). […]
molecule,measurement,value
B1,binding to collagen I,does not bind
